Data reported in PMC7525818 (Molecular Biology of the Cell, 2020).

B1: recombinant full-length human advillin (GST tag cleaved) (natural protein, UniProt O75366 1-819, looked up)
chain: MPLTSAFRAVDNDPGIIVWRIEKMELALVPVSAHGNFYEGDCYVILSTRRVASLLSQDIHFWIGKDSSQDEQSCAAIYTTQLDDYLGGSPVQHREVQYHESDTFRGYFKQGIIYKQGGVASGMKHVETNTYDVKRLLHVKGKRNIRATEVEMSWDSFNRGDVFLLDLGKVIIQWNGPESNSGERLKAMLLAKDIRDRERGGRAKIGVIEGDKEAASPELMKVLQDTLGRRSIIKPTVPDEIIDQKQKSTIMLYHISDSAGQLAVTEVATRPLVQDLLNHDDCYILDQSGTKIYVWKGKGATKAEKQAAMSKALGFIKMKSYPSSTNVETVNDGAESAMFKQLFQKWSVKDQTMGLGKTFSIGKIAKVFQDKFDVTLLHTKPEVAAQERMVDDGNGKVEVWRIENLELVPVEYQWYGFFYGGDCYLVLYTYEVNGKPHHILYIWQGRHASQDELAASAYQAVEVDRQFDGAAVQVRVRMGTEPRHFMAIFKGKLVIFEGGTSRKGNAEPDPPVRLFQIHGNDKSNTKAVEVPAFASSLNSNDVFLLRTQAEHYLWYGKGSSGDERAMAKELASLLCDGSENTVAEGQEPAEFWDLLGGKTPYANDKRLQQEILDVQSRLFECSNKTGQFVVTEITDFTQDDLNPTDVMLLDTWDQVFLWIGAEANATEKESALATAQQYLHTHPSGRDPDTPILIIKQGFEPPIFTGWFLAWDPNIWSAGKTYEQLKEELGDAAAIMRITADMKNATLSLNSNDSEPKYYPIAVLLKNQNQELPEDVNPAKKENYLSEQDFVSVFGITRGQFAALPGWKQLQMKKEKGLF
B2: recombinant full-length human villin (GST tag cleaved) (natural protein, UniProt P09327 1-827, looked up)
chain: MTKLSAQVKGSLNITTPGLQIWRIEAMQMVPVPSSTFGSFFDGDCYIILAIHKTASSLSYDIHYWIGQDSSLDEQGAAAIYTTQMDDFLKGRAVQHREVQGNESEAFRGYFKQGLVIRKGGVASGMKHVETNSYDVQRLLHVKGKRNVVAGEVEMSWKSFNRGDVFLLDLGKLIIQWNGPESTRMERLRGMTLAKEIRDQERGGRTYVGVVDGENELASPKLMEVMNHVLGKRRELKAAVPDTVVEPALKAALKLYHVSDSEGNLVVREVATRPLTQDLLSHEDCYILDQGGLKIYVWKGKKANEQEKKGAMSHALNFIKAKQYPPSTQVEVQNDGAESAVFQQLFQKWTASNRTSGLGKTHTVGSVAKVEQVKFDATSMHVKPQVAAQQKMVDDGSGEVQVWRIENLELVPVDSKWLGHFYGGDCYLLLYTYLIGEKQHYLLYVWQGSQASQDEITASAYQAVILDQKYNGEPVQIRVPMGKEPPHLMSIFKGRMVVYQGGTSRTNNLETGPSTRLFQVQGTGANNTKAFEVPARANFLNSNDVFVLKTQSCCYLWCGKGCSGDEREMAKMVADTISRTEKQVVVEGQEPANFWMALGGKAPYANTKRLQEENLVITPRLFECSNKTGRFLATEIPDFNQDDLEEDDVFLLDVWDQVFFWIGKHANEEEKKAAATTAQEYLKTHPSGRDPETPIIVVKQGHEPPTFTGWFLAWDPFKWSNTKSYEDLKAELGNSRDWSQITAEVTSPKVDVFNANSNLSSGPLPIFPLEQLVNKPVEELPEGVDPSRKEEHLSIEDFTQAFGMTPAAFSALPRWKQQNLKKEKGLF

Target: the molecule itself
Assay: cross-linking

Protein | binding result | stoichiometry N
B1 | binds | 
B2 |  | 2
